Residue numbers refer to the chain shown, from its start.
Key:
Test in all cases: EMSA
Settings in all cases: 8-oxo-7,8-dihydroguanosine at positions 3,7,11,15,19,23
[1] = biological target: T1, PNPase GFT S76G;F78T (Escherichia coli K12) (UniProt P05055)
T1 sequence: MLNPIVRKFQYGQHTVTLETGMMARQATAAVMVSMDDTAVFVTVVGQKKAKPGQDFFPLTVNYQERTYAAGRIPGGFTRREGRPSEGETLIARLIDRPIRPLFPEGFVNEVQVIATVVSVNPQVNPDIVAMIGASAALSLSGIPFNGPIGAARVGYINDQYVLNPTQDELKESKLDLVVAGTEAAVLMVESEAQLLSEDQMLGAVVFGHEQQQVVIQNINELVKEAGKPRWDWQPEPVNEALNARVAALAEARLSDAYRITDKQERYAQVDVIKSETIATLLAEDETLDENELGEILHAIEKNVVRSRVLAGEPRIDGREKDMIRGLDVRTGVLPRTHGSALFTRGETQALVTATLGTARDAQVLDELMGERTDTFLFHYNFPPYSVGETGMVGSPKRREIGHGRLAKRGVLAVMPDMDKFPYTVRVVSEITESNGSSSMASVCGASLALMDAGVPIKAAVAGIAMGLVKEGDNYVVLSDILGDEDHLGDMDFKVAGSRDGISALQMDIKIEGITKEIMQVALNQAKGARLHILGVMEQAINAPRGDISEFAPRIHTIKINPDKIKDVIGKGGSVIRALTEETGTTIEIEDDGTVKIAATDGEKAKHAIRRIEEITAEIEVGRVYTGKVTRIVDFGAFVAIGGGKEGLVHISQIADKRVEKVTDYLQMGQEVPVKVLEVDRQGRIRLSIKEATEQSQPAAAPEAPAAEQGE

[2] = biological target: T2, PNPase NFH S76N;F78H (Escherichia coli K12) (UniProt P05055)
T2 sequence: T1 sequence with G76N, T78H

[3] = biological target: T3, PNPase NYM S76N;F77Y;F78M (Escherichia coli K12) (UniProt P05055)
T3 sequence: T1 sequence with G76N, F77Y, T78M

[4] = biological target: T4, PNPase wild type (SFF) (Escherichia coli K12) (UniProt P05055)
T4 sequence: T1 sequence with G76S, T78F

## NNGNNNGNNNGNNNGNNNGNNNGN [8-oxoG RNA 24-mer [NN(8-oxoG)N]6]
[1]
  binding signal (Kd ratio unmodified/8-oxoG (selectivity)): 2.3
[2]
  binding signal (Kd ratio unmodified/8-oxoG (selectivity)): 2.5
[3]
  binding signal (Kd ratio unmodified/8-oxoG (selectivity)): 2.8
[4]
  binding signal (Kd ratio unmodified/8-oxoG (selectivity)): 1.8

— article PMC6965710
